Molecular target: NS3h wt (NS3 helicase domain) (Hepatitis C virus JFH1 (genotype 2a), UniProt Q99IB8 1218-1662)
Experiment: fluorescence polarization; probe; Kd of 5 nM only assumed for fit; FP competition: 15 nM NS3h, 15 nM Cy5-dT15, 25 mM MOPS pH 7.5, 1.25 mM MgCl2, 0.0025 mg/ml BSA, 0.005% Tween20, 0.025 mM DTT, 0-2000 nM competitor, 20 min, 23 C
Details: protein: recombinant; tags: C-terminal His tag; label: 5' Cy5

Chain of NS3h wt (NS3 helicase domain) (Q99IB8 1218-1662): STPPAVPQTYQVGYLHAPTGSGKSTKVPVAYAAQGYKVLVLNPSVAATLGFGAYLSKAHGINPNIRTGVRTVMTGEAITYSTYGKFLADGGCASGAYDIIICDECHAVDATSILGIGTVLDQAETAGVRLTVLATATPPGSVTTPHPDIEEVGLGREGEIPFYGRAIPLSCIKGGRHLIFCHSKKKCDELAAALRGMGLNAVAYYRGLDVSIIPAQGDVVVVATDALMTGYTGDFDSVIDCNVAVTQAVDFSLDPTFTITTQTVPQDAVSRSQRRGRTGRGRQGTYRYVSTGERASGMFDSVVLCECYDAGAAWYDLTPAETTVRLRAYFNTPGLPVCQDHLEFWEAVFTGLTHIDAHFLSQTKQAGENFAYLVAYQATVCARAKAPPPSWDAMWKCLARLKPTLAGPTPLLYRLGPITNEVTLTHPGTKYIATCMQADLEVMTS

Does TTTTTTTTTTTTTTT (ssDNA) [Cy5-dT15] bind?
Result: binds

From publication PMC12391449, “Hepatitis C virus NS3 helicase contributes to (−) strand RNA synthesis”
